Laboratory results: paper doi:10.1101/2023.12.15.571532 (bioRxiv, 2023)

Target: the molecule itself
Experiment: native gel or EMSA

Protein	stoichiometry N	binding result
RelJ antitoxin, recombinant His-tagged (natural protein) MSISASEARQRLFPLIEQVNTDHQPVRITSRAGDAVLMSADDYDAWQETVYLLRSPENARRLMEAVARDKAGHSAFTKSVDELREMAGGEE	4	
RelB antitoxin, recombinant His-tagged (natural protein) MAVVPLGEVRNRLSEYVAEVELTHERITITRHGHPAAVLISADDLASIEETLEVLRTPGASEAIREGLADVAAGRFVSNDEIRNRYTAR		binds
RelF antitoxin, recombinant His-tagged (natural protein) MRILPISTIKGKLNEFVDAVSSTQDQITITKNGAPAAVLVGADEWESLQETLYWLAQPGIRESIAEADADIASGRTYGEDEIRAEFGVPRRPH	4	
